# In patent US20260265404A1 (FRED HUTCHINSON CANCER CENTER, published 2026):
# Biological target: T1, human full-length CD33 (CD33^FL) (human, UniProt P20138 18-364)
# T1 construct: also called Siglec-3
# Experiment: flow cytometry on REH subline expressing CD33^FL
# T1 sequence (P20138 18-364): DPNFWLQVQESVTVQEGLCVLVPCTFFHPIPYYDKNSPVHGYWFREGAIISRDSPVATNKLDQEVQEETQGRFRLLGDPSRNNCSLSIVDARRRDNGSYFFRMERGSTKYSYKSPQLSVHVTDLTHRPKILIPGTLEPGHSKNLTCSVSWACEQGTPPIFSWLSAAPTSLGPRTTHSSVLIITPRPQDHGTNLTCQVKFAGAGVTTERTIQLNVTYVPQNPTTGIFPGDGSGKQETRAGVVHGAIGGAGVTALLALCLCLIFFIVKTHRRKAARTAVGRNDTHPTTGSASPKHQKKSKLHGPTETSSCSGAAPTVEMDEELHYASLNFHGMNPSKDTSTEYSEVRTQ
row,binding result,Binder
1,binds,"2D3 antibody (human CD33V-set antibody clone, hybridoma-derived) (antibody, V domains shown, also called clone 2D3) VH: EVQLLESGGGLVQPGGSLSLSCAASGFTFSIYAMSWVRQAPGKGLEWVSAISDSGGTTYYADSVKGRFTISRDNSKNMLYLEMNSLRAEDTAIYYCAKRTRYFNGMDVWGQGTTVTVSS VL: EIVMTQSPATLSLSPGERATLSCRASQSGSSSFLSWYQQKPGQAPRLLIYGASTRATGIPARFSGSGSGTDFTLTISSLQPEDFAVYYCQQDYNLPFTFGPGTKVDIK"
2,binds,"1H8 antibody (human CD33V-set antibody clone, hybridoma-derived) (antibody, V domains shown, also called clone 1H8) VH: QVQLVESGGGVVQPGGSLRLSCAASGFTFGSYGMHWVRQAPGKGLEWVAVIWYDGSNEYYADSVKGRFTVSRDNSKHTLYLQMNRLRAEDTAVYYCARDLDYDSSGGDYWGQGILVLVSS VL: EIVLTQSPDFQSVTPKEKVTITCRASQNIGGNLHWYQQKPDQSPKLLIRYATQPFSGVPSRFGGSGSGTDFTLTINSLEAEDAATYYCHQSSSLPLTFGGGTKVEIK"
3,binds,"1H10 antibody (human CD33^PAN antibody clone, hybridoma-derived) (antibody, V domains shown, also called clone 1H10) VH: QVQLVQSGAEVKKPGASVKVSCKGSGYIFTSYDMHWVRQAPGQGLEWMGIIDPSGGSTSYAQKFQGRVTMTRDTSMSTVYMELSSLRSEDTAVYYCTRDYSWSYFDYWGQGTLVTVSS VL: AIQMTQSPSSLSASVGDRVTITCRASQGIRIYLGWYQQKPGKAPKLLIYATSSLQSGVPSRFSGSGSGTDFTLTISSLQPEDFATYYCLQDYNYPWTFGQGTKVEIK"

# Biological target: T1, human full-length CD33 (CD33^FL)
# Experiment: flow cytometry on parental CD33+ ML-1 cells against ML-1 CD33 KO cells (endogenous CD33)
row,binding result,Binder
1,binds,"1E6 antibody (human CD33^PAN antibody clone, hybridoma-derived) (antibody, V domains shown, also called clone 1E6) VH: QVQLVESGGGVVQPGRSLRLSCAASGFTFSSYDIHWVRQAPGKGLEWVAVIWYDGSHNYYSDSVKGRFTISRDNSKNTLYLQMNSLRAEDTAVYYCARDYSGSYYDYWGQGTLVTVSS VL: AIQMTQSPSSLSASVGDRVTITCRASQGIRNDLGWYQQKPGKAPKLLIYAASNLQSGVPSRFSGSGSGTDFTLTISSLQPEDFATYYCLQDYSYPRTFGQGTKVEIK"
2,binds,"1A9 antibody (human CD33^PAN antibody clone, hybridoma-derived) (antibody, V domains shown, also called clone 1A9) VH: EVQLVESGGGLVQPGGSLRLSCAASGFTFSIYDMHWVRQATGKGLEWVSAIGTAGDTYYAGSVKGRFTISRENAKNSLYLQMNSLRAGDTAVYYCAREYSGYYFDYWGQGTLVTVSS VL: AIQMTQSPSSLSASVGDRVTITCRASQDIRNDLGWYQQKPGKAPKILIYGASSLQSGVPSRFSGSGSGTDFTFTISSLQPEDFATYYCLQEYNYPCTFGQGTKLEIK"
3,binds,"1B9 antibody (human CD33^PAN antibody clone, hybridoma-derived) (antibody, V domains shown, also called clone 1B9) VH: QVQLVESGGGVVQPGRSLRLSCAASGFIFSSYDIHWVRQAPGKGLEWVAVIWYDGSHNYYSDSVKGRFTISRDNSKNTLYLQMNSLRAEDTAVYYCARDYSGSYFDYWGQGTLVTVSS VL: AIQMTQSPSSLSASVGDRVTITCRASQDIRNDLGWYLQRPGKAPKLLIYAASSLQSGVPSRFSGSGSGTDFTLTISSLQPEDFATYYCLQDYSYPRTFGQGTTVEIK"
4,binds,"1D2 antibody (human CD33^PAN antibody clone, hybridoma-derived) (antibody, V domains shown, also called clone 1D2) VH: QVQLVESGGGVVQPGRSLRLSCAASGFTFSSYDIHWVRQAPGKGLEWVAVIWYDGSQKYYADSVKGRFTISRDNSKNTLYLQMNSLRAEDTAVYYCARDYSGSYYDYWGQGTLVTVSS VL: AIQMTQSPSSLSASVGDRVTITCRASQGIRNDLGWYQQKPGKAPELLIYATSSLQSGVPSRFSGSGSGTDFTLIISSLQPEDFATYYCLQDYSYPRTFGQGTKVEIK"
